Test results from the supplement of paper PMC10724198.
± gives the standard deviation of the averaged measurements.

What was measured:
[1] = tested on: Saccharomyces cerevisiae; test: protein stability index of tFT-peptide fusion (C-terminal peptide) (PSI (0-1 scale)); higher = more stable (slower turnover); details: genetic background: wild type; temperature: 30 C
[2] = tested on: Saccharomyces cerevisiae; test: as above
Experimental: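 MPS profiling in S. cerevisiae of the tFT-X12 degron library: putative degron peptides plus stable controls, 12 aa, fused to the C-terminus of a sfGFP-mCherry timer. Cells are FACS-sorted into 8 mCherry/sfGFP bins and deep-sequenced. PSI runs from 0 (unstable) to 1 (stable). Backgrounds are wild type, das1Δ and doa10Δ at 30 °C, and wild type, das1Δ, cdc34-1 and cdc53-1 at 37 °C; 2-3 technical replicates each.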

[3] = genetic background: cdc34-1, temperature: 37 C
[4] = genetic background: cdc53-1, temperature: 37 C
[5] = genetic background: das1 deletion, temperature: 30 C
[6] = genetic background: das1 deletion, temperature: 37 C
[7] = genetic background: doa10 deletion, temperature: 30 C
[8] = genetic background: wild type, temperature: 30 C
[9] = genetic background: wild type, temperature: 37 C
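Note: PSI is a weighted mean of sequencing reads over stability bins, variants kept only with over 10 reads, mCherry proximal and sfGFP distal, peptide attached via GGGS linker.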

| Sequence | protein stability index [1] | protein stability index [2, 3] | protein stability index [2, 4] | protein stability index [2, 5] | protein stability index [2, 6] | protein stability index [2, 7] | protein stability index [2, 8] | protein stability index [2, 9] |
| --- | --- | --- | --- | --- | --- | --- | --- | --- |
| WILIGVRFSCFG | 0.299 ± 0.0058 | 0.109 ± 0.0085 | 0.233 ± 0.069 | 0.189 ± 0.034 | 0.339 ± 0.015 | 0.159 ± 0.013 | 0.165 ± 0.021 | 0.276 ± 0.018 |
| WISDRCPSVLCY | 0.251 ± 0.015 | 0.0407 ± 0.0022 | 0.0838 ± 0.0009 | 0.185 ± 0.025 | 0.206 ± 0.011 | 0.143 ± 0.011 | 0.157 ± 0.028 | 0.184 ± 0.017 |
| WLPFFPLSLRGV | 0.497 ± 0.2 | 0.321 ± 0.012 | 0.317 ± 0.011 | 0.412 ± 0.027 | 0.5374 ± 0.0038 | 0.63 ± 0.0096 | 0.436 ± 0.048 | 0.5 ± 0.0093 |
| WLWFVGCLAAPL | 0.541 ± 0.07 | 0.63 ± 0.032 | 0.662 ± 0.066 | 0.529 ± 0.024 | 0.6316 ± 0.001 | 0.523 ± 0.021 | 0.536 ± 0.04 | 0.5957 ± 0.0016 |
| WQGLSGSPILVI | 0.402 ± 0.016 | 0.197 ± 0.012 | 0.248 ± 0.015 | 0.247 ± 0.037 | 0.3829 ± 0.0012 | 0.206 ± 0.0061 | 0.241 ± 0.048 | 0.334 ± 0.013 |
| WQILVRLIDFYT | 0.436 ± 0.0055 | 0.453 ± 0.011 | 0.446 ± 0.023 | 0.345 ± 0.034 | 0.5107 ± 0.0039 | 0.311 ± 0.0072 | 0.338 ± 0.0092 | 0.4889 ± 0.00098 |
| WSSWFLWVIFRL | 0.348 ± 0.02 | 0.176 ± 0.011 | 0.173 ± 0.023 | 0.34 ± 0.035 | 0.433 ± 0.056 | 0.459 ± 0.0077 | 0.289 ± 0.035 | 0.288 ± 0.035 |
| WSWCLDVVCFTS | 0.471 ± 0.0059 | 0.498 ± 0.036 | 0.547 ± 0.027 | 0.45 ± 0.021 | 0.563 ± 0.019 | 0.446 ± 0.011 | 0.439 ± 0.011 | 0.531 ± 0.024 |
| WVGWVVVLGCVG | 0.489 ± 0.013 | 0.373 ± 0.027 | 0.42 ± 0.012 | 0.29 ± 0.026 | 0.47 ± 0.013 | 0.25152 ± 0.00025 | 0.282 ± 0.018 | 0.449 ± 0.022 |
| WVRIIIKLRASL | 0.315 ± 0.041 | 0.444 ± 0.011 | 0.4476 ± 0.0035 | 0.34 ± 0.021 | 0.41 ± 0.0083 | 0.274 ± 0.0048 | 0.253 ± 0.011 | 0.345 ± 0.034 |
| WVSFFILYCVYR | 0.232 ± 0.03 | 0.274 ± 0.016 | 0.345 ± 0.024 | 0.253 ± 0.04 | 0.445 ± 0.017 | 0.23 ± 0.0055 | 0.237 ± 0.018 | 0.378 ± 0.011 |
| WWADRLVGVCIV | 0.491 ± 0.011 | 0.55 ± 0.034 | 0.539 ± 0.026 | 0.439 ± 0.024 | 0.587 ± 0.0076 | 0.38961 ± 2.3e-05 | 0.422 ± 0.023 | 0.5359 ± 0.00088 |
| WYYTWKQLVMIV | 0.0294 ± 0.022 | 0.0845 ± 0.01 | 0.148 ± 0.0062 | 0.106 ± 0.023 | 0.186 ± 0.0072 | 0.0276 ± 0.0037 | 0.0263 ± 0.0054 | 0.0433 ± 0.021 |
| YARFWYSKAFIC | 0.2 ± 0.013 | 0.455 ± 0.048 | 0.555 ± 0.011 | 0.581 ± 0.033 | 0.694 ± 0.025 | 0.12 ± 0.023 | 0.115 ± 0.012 | 0.169 ± 0.0034 |
| YCILGSYRLCVG | 0.36 ± 0.0049 | 0.337 ± 0.037 | 0.434 ± 0.073 | 0.259 ± 0.033 | 0.447 ± 0.018 | 0.2321 ± 0.00024 | 0.252 ± 0.033 | 0.427 ± 0.012 |
| YCSIQIQLVYGI | 0.424 ± 0.023 | 0.341 ± 0.0037 | 0.4103 ± 0.0034 | 0.302 ± 0.025 | 0.441 ± 0.0063 | 0.301 ± 0.0082 | 0.312 ± 0.013 | 0.396 ± 0.011 |
| YFFVCYFSLLVF | 0.177 ± 0.0081 | 0.0832 ± 0.019 | 0.139 ± 0.025 | 0.14 ± 0.032 | 0.231 ± 0.012 | 0.0967 ± 0.0036 | 0.119 ± 0.016 | 0.168 ± 0.03 |
| YFYIRLGIAYMM | 0.275 ± 0.027 | 0.421 ± 0.037 | 0.511 ± 0.056 | 0.436 ± 0.026 | 0.503 ± 0.019 | 0.197 ± 0.013 | 0.206 ± 0.019 | 0.264 ± 0.015 |
| YILRLMMEGICL | 0.4198 ± 0.0029 | 0.497 ± 0.012 | 0.545 ± 0.036 | 0.416 ± 0.033 | 0.48 ± 0.019 | 0.422 ± 0.038 | 0.409 ± 0.0083 | 0.464 ± 0.022 |
| YLFFVCLHLKAG | 0.302 ± 0.044 | 0.233 ± 0.03 | 0.335 ± 0.018 | 0.227 ± 0.031 | 0.417 ± 0.013 | 0.174 ± 0.0063 | 0.206 ± 0.018 | 0.3494 ± 0.00053 |
| YLRVRRPGSALV | 0.654 ± 0.23 | 0.7087 ± 0.0013 | 0.769 ± 0.028 | 0.63 ± 0.022 | 0.7643 ± 0.0014 | 0.629 ± 0.035 | 0.624 ± 0.0081 | 0.7277 ± 0.0017 |
| YNKIRNNEKKMT | 0.36 ± 0.017 | 0.664 ± 0.084 | 0.696 ± 0.026 | 0.674 ± 0.073 | 0.7121 ± 0.0016 | 0.1897 ± 0.0018 | 0.27 ± 0.055 | 0.457 ± 0.043 |
| YPSCPINFICLC | 0.417 ± 0.035 | 0.618 ± 0.0088 | 0.6992 ± 0.0053 | 0.585 ± 0.017 | 0.685 ± 0.01 | 0.29 ± 0.0056 | 0.308 ± 0.037 | 0.499 ± 0.0051 |
| YRNVLLVLNYWS | 0.491 ± 0.0064 | 0.447 ± 0.076 | 0.368 ± 0.029 | 0.428 ± 0.031 | 0.544 ± 0.0087 | 0.518 ± 0.0072 | 0.406 ± 0.022 | 0.51 ± 0.026 |
| YSIHYLRFFSLF | 0.133 ± 0.034 | 0.4734 ± 0.00049 | 0.6669 ± 0.0066 | 0.6143 ± 0.0048 | 0.726 ± 0.014 | 0.0685 ± 0.011 | 0.0874 ± 0.015 | 0.0998 ± 0.011 |
| YSMLGKLVRLVT | 0.285 ± 0.033 | 0.553 ± 0.05 | 0.662 ± 0.02 | 0.512 ± 0.025 | 0.63036 ± 0.00022 | 0.164 ± 0.004 | 0.2 ± 0.013 | 0.374 ± 0.015 |
| YVCLVWHRNFFS | 0.259 ± 0.0039 | 0.617 ± 0.014 | 0.704 ± 0.019 | 0.605 ± 0.011 | 0.73 ± 0.048 | 0.14 ± 0.0063 | 0.155 ± 0.025 | 0.228 ± 0.076 |
| YVSSFSLVVLLS | 0.228 ± 0.029 | 0.425 ± 0.0077 | 0.478 ± 0.024 | 0.377 ± 0.033 | 0.506 ± 0.0069 | 0.108 ± 0.015 | 0.125 ± 0.014 | 0.217 ± 0.017 |
| YVVCFFFKLFYF | 0.382 ± 0.046 | 0.271 ± 0.012 | 0.364 ± 0.024 | 0.299 ± 0.025 | 0.4172 ± 0.0025 | 0.256 ± 0.0065 | 0.244 ± 0.025 | 0.341 ± 0.024 |
| YVVYLQVCWMRS | 0.227 ± 0.0044 | 0.072 ± 0.025 | 0.206 ± 0.076 | 0.134 ± 0.019 | 0.23 ± 0.0061 | 0.0911 ± 0.019 | 0.104 ± 0.035 | 0.186 ± 0.024 |
